Laboratory results taken from paper PMC8007706, “Structural and functional analysis of LIM domain-dependent recruitment of paxillin to αvβ3 integrin-positive focal adhesions” (Communications Biology, 2021).

Experiments:
[1] = target: T1, His-tagged talin-head (talin 1–405 aa), C-tagged version (UniProt P26039 1-405); test: BLI; Octet RED384; biotinylated MBP-LIMs immobilised on streptavidin sensor (biocytin quench); His-tagged talin head in solution at 20, 80, 320, 1250 and 5000 nM; PBS with 1% BSA, 0.1% Tween-20, 0.05% sodium azide; 27 °C, 1000 rpm; biotinylated free MBP sensor subtracted; apparent affinity; conditions: both partners purified
T1 construct: talin 1, residues 1–405 (head domain); also called TH; C-tagged talin; not shown: His tag, C-terminal, kept

[2] = target: T2, His-tagged talin-head (talin 1–405 aa), N-tagged version (UniProt P26039 1-405); test: as above; conditions: both partners purified
T2 construct: talin 1, residues 1–405 (head domain); also called TH; N-tagged talin; not shown: His tag, N-terminal, kept
T2 sequence (P26039 1-405): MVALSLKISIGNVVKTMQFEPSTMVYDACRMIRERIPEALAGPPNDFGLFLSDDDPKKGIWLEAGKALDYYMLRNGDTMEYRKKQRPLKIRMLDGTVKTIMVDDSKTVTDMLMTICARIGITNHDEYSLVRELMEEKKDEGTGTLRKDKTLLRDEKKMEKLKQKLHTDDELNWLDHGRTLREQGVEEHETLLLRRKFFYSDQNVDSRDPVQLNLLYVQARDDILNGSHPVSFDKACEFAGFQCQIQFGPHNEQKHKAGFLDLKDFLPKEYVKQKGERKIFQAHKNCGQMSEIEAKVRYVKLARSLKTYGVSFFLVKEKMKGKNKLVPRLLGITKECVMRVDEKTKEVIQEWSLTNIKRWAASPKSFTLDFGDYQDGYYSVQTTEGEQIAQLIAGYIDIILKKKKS

T1 sequence (P26039 1-405): as above

Kd [1]: 770 nM | Kd [2]: 720 nM
B1: biotinylated MBP-LIMs (domain or fragment, human, UniProt P49023-2 317-557, looked up)
chain: ATVAKGVCGACKKPIAGQVVTAMGKTWHPEHFVCTHCQEEIGSRNFFERDGQPYCEKDYHNLFSPRCYYCNGPILDKVVTALDRTWHPEHFFCAQCGAFFGPEGFHEKDGKAYCRKDYFDMFAPKCGGCARAILENYISALNTLWHPECFVCRECFTPFVNGSFFEHDGQPYCEVHYHERRGSLCSGCQKPITGRCITAMAKKFHPEHFVCAFCLKQLNKGTFKEQNDKPYCQNCFLKLFC
modifications: biotin (EZ-Link NHS-PEG4-Biotin)
notes: paxillin LIM1-LIM4, human paxillin α; limits as told for the LIMs construct (from residue 317), the MBP constructs being 'analogously produced'; numbered according to P49023-2; also called MBP-tagged and biotinylated LIM domains (LIMs)
